Consider five molecules from paper PMC6987127 (Nature Communications, 2020).

Series [1] concerns the target T1, TrkH-TrkA complex (TrkHA) (Vibrio parahaemolyticus, UniProt Q87KD2).
T1 construct: gene VP3045; full-length TrkH with C-terminal TEV site and His10; full-length TrkA with N-terminal GST cut by TEV; each made in E. coli BL21(DE3) and mixed; for patch clamp both co-expressed from modified pET vectors in E. coli giant spheroplasts; TrkH dimer with TrkA tetramer; with Trk system potassium uptake protein TrkH
T1 sequence (Q87KD2 1-458): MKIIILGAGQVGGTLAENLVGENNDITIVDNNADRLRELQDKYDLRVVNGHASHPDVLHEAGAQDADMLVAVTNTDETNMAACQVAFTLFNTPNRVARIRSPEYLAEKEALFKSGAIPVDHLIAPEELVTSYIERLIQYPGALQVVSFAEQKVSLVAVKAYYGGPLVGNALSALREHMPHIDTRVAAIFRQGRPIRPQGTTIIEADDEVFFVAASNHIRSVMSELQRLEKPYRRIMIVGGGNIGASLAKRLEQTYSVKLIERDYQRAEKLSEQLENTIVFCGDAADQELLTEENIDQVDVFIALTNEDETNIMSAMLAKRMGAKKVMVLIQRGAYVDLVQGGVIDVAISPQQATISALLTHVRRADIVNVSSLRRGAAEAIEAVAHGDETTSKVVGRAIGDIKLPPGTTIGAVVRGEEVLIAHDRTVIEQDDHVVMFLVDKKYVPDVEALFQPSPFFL
T1 sequence (Q87TN7 1-485 partner): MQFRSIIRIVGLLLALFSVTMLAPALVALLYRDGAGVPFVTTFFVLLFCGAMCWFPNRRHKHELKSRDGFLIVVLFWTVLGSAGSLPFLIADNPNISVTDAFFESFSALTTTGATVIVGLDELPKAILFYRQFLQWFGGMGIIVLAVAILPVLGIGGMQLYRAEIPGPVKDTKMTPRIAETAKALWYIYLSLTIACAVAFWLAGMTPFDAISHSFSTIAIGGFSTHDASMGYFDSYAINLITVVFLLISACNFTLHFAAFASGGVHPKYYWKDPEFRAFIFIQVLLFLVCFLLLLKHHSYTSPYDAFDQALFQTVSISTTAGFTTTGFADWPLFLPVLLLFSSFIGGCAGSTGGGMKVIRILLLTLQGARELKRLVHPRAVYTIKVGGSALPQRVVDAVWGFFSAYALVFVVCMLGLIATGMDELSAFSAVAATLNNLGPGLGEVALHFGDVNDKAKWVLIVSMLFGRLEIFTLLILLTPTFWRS
The experiment in a line: X-ray crystallography, […] A. Format: binding. The settings on record: 10 mM ADP; pH 7.2; 20 °C; site: N2 domain of TrkA only.

The target in series [2] is T1, TrkH-TrkA complex (TrkHA). The experiment in a line: single-channel patch clamp, inside-out patches of E. coli giant spheroplasts. The class given is biochemical. The note with it: 150 mM KCl, 10 mM HEPES pH 7.4, same wild-type value also cited to earlier work.
In series [3] the target is T1, TrkH-TrkA complex (TrkHA). The series can be described thus: X-ray crystallography, […] A. The class given is binding. The settings on record: 10 mM ATPγS; MgCl2 50 mM; pH 7.3; 20 °C; sites: N1 and N2 domains of TrkA.
For series [4], the target named is TrkA from Vibrio parahaemolyticus, wild type (Vibrio parahaemolyticus). The experiment in a line: crystal structure; TrkH-TrkA complex crystallised in the presence of 10 mM ATPγS (TrkHA-ATPγS), 3.85 Å; 20 °C, MgCl2 50 mM, NH4H2PO4 50 mM, HEPES pH 7.3, PEG400 20%.
For series [5], the target named is TrkH from Vibrio parahaemolyticus, wild type (Vibrio parahaemolyticus) (UniProt Q87TN7).
Series [6] concerns the target TrkA from Vibrio parahaemolyticus, wild type (Vibrio parahaemolyticus). The experiment in a line: crystal structure; TrkH-TrkA complex crystallised in the presence of 10 mM ADP (TrkHA-ADP), 3.53 Å; 20 °C, magnesium acetate 100 mM, HEPES pH 7.2, PEG400 26%, 2-propanol 10%.
Series [7] shares this target. The series can be described thus: cryo-EM structure; TrkH-TrkA complex frozen on grids in the presence of 10 mM ATP (TrkHA-ATP), overall 3.0 Å; 150 mM KCl, 20 mM HEPES pH 7.5, 5 mM β-mercaptoethanol, 3.5 mM DM.
Series [8] deals with the molecule itself. The experiment in a line: crystal structure; TrkH-TrkA complex crystallised in the presence of 10 mM ADP (TrkHA-ADP), 3.53 Å; 20 °C, magnesium acetate 100 mM, HEPES pH 7.2, PEG400 26%, 2-propanol 10%.

For the molecule `Nc1ncnc2c1ncn2[C@@H]1O[C@H](COP(=O)(O)OP(=O)(O)O)[C@@H](O)[C@H]1O` [ADP], the “X-ray crystallography, 3.53 A” value in series [1] is “each TrkA has a prominent non-protein density in the N2 domain in which we modeled”. Moreover, the “Popen at 5 mM” value in series [2] (5 mM ADP, closes channel) came to 0.02 ± 0.002.

Turning to `Nc1ncnc2c1ncn2[C@@H]1O[C@H](COP(=O)(O)OP(=O)(O)OP(=O)(O)O)[C@@H](O)[C@H]1O` [ATP], the “Popen at 5 mM” value in series [2] (5 mM ATP, activator) is on record as 0.87 ± 0.003.

Turning to `Nc1ncnc2c1ncn2[C@@H]1O[C@H](COP(=O)(O)OP(=O)(O)OP(O)(O)=S)[C@@H](O)[C@H]1O` [ATPγS], the “X-ray crystallography, 3.85 A” value in series [3] is “ATPγS is found in both the N1 and N2 domains”.

A word on the stoichiometry N: it is the number of molecules, sites or subunits per partner or assembly. In the case of “TrkA from Vibrio parahaemolyticus, wild type (natural protein)”, the stoichiometry N in series [4] amounted to 4; in series [6], 4; in series [7], 2. In series [5], this molecule registered a single-channel open probability (Popen) of TrkHA wt, inside-out patches of E. coli spheroplasts, in ADP of 0.02. In addition, the single-channel open probability (Popen) of TrkHA wt, inside-out patches of E. coli spheroplasts, in ATP in series [5] was 0.87. This molecule displayed a single-channel open probability (Popen) of TrkHA wt, inside-out patches of E. coli spheroplasts, no ligand in series [5] of 0.17.

B1: TrkH from Vibrio parahaemolyticus, wild type (natural protein, UniProt Q87TN7 1-485, looked up)
chain: T1 sequence (Q87TN7 1-485 partner)
notes: TrkH, Vibrio parahaemolyticus, full-length gene in a modified pET vector; TEV protease site followed by a 10-polyhistidine tag at the C terminus; printed residue numbers run to 485; Homodimer in all three structures; also called TrkH (wt)
B1: in series [8], the “stoichiometry N” value came to 2.
